For one data set, the system named is garL. The data set can be described thus: Transcriptomic analysis during DHB fermentation: aldolase gene expression. Type of data set: cell-based, Escherichia coli. The conditions noted are these: in presence of significant amount of DHB.
The test system of a further data set is rhmA. Described as above. Type of data set: cell-based, Escherichia coli. The conditions noted are these: in presence of significant amount of DHB.
The subject of the next data set is yfaU. Described as above. Type of data set: cell-based, Escherichia coli. The conditions noted are these: in presence of significant amount of DHB.
For a further data set, the system named is yagE. The description is as above. The format is cell-based, Escherichia coli. The settings on record: in presence of significant amount of DHB.
A further data set has as its system YjhH. The data set is described as above. Type of data set: cell-based, Escherichia coli. The settings on record: in presence of significant amount of DHB.
The target of data set [1] is T1, Escherichia coli pyruvate aldolase Eda (E.C. 4.1.2.14) (Escherichia coli, UniProt P0A955).
T1 construct: coupled LdhA/NADH assay
T1 sequence (P0A955 1-213): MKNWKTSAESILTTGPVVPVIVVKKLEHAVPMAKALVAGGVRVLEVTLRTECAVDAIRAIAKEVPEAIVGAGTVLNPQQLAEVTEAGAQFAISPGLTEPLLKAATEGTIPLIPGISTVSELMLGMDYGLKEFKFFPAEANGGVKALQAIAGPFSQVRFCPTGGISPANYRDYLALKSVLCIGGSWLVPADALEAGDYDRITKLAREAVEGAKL
The data set can be described thus: Kinetic characterization of pyruvate aldolase on OHB (coupled LdhA/NADH assay, 340 nm). The format is biochemical. The settings on record: Tris-HCl 50 mM pH 7.5, 5 mM MgCl2, 37° C., 0 to 13 mM OHB.

For data set [2] the following is noted: variant obtained by in vivo evolution (Bouzon et al., 2017); cited from earlier work.
Data set [3] is described as follows: In vivo capacity to degrade OHB by deletion of genes encoding pyruvate aldolase. The conditions noted are these: E. coli, gene deletion strains incubated with DHB. Type of data set: cell-based, Escherichia coli. From the text: We measured production of formate in strains that were deleted for one of these aldolase encoding gene.
Substrate in data set [4]: O=C(O)C(=O)CCO
The data set can be described thus: purified protein, by the assay type. The format is biochemical, Escherichia coli. The conditions noted are these: Tris-HCl 50 mM pH 7.5, 5 mM MgCl2, 37° C., 0 to 13 mM OHB.

For `O=C(O)C(O)CCO` (racemic) [DHB, 2,4-dihydroxybutyric acid], the “Maximal Expression” value in the data set on garL was found to be 1.32; in the data set on rhmA, 1.14; with yfaU, 1.09; in the data set with yagE, 13.33; with YjhH, 3.33. Moreover, the “Minimal Expression” value with garL was 1.06; in the data set on rhmA it was 0.98; in the data set on yfaU, 0.9; in the data set on yagE, 1.82; in the data set on YjhH it was 1.25.

Turning to `O=C(O)C(=O)CCO` [OHB, 2-oxo-4-hydroxybutyrate], the Michaelis constant (Km) in data set [1] is greater than 20 mM.

B1: AlaC^A142PY275D: variant of alanine-α-ketoglutarate transaminase from E coli Ec-AlaC, obtained by in vivo evolution (Bouzon et al., 2017) (protein, UniProt P77434 1-412, looked up, variant A142P Y275D)
Glutamate-pyruvate …: MADTRPERRFTRIDRLPPYVFNITAELKMAARRRGEDIIDFSMGNPDGATPPHIVEKLCTVAQRPDTHGYSTSRGIPRLRRAISRWYQDRYDVEIDPESEAIVTIGSKEGLAHLMLATLDHGDTVLVPNPSYPIHIYGAVIPGAQVRSVPLVEGVDFFNELERAIRESYPKPKMMILGFPSNPTAQCVELEFFEKVVALAKRYDVLVVHDLAYADIVYDGWKAPSIMQVPGARDVAVEFFTLSKSYNMAGWRIGFMVGNKTLVSALARIKSYHDDGTFTPLQVAAIAALEGDQQCVRDIAEQYKRRRDVLVKGLHEAGWMVEMPKASMYVWAKIPEPYAAMGSLEFAKKLLNEAKVCVSPGIGFGDYGDTHVRFALIENRDRIRQAIRGIKAMFRADGLLPASSKHIHENAE
Consider B1, for which, in [2], the “higher catalytic activity on homoserine” value is recorded as 100 fold.

B2: GarL: E. coli pyruvate aldolase, E.C. 4.1.2.20, natural substrate 5-dehydro-4-deoxy-D-glucarate (protein, UniProt P23522 1-256, looked up)
5-keto-4-deoxy-D-glucarate …: MNNDVFPNKFKAALAAKQVQIGCWSALSNPISTEVLGLAGFDWLVLDGEHAPNDISTFIPQLMALKGSASAPVVRVPTNEPVIIKRLLDIGFYNFLIPFVETKEEAELAVASTRYPPEGIRGVSVSHRANMFGTVADYFAQSNKNITILVQIESQQGVDNVDAIAATEGVDGIFVGPSDLAAALGHLGNASHPDVQKAIQHIFNRASAHGKPSGILAPVEADARRYLEWGATFVAVGSDLGVFRSATQKLADTFKK
For the molecule B2, the “function on OHB in vivo” value in data set [3] is reported as “do not have any function on OHB in vivo”.

B3: Escherichia coli pyruvate aldolase YagE (E.C. 4.1.2.28) (Escherichia coli K-12) (protein)
chain: MPQSALFTGIIPPVSTIFTADGQLDKPGTAALIDDLIKAGVDGLFFLGSGGEFSQLGAEERKAIARFAIDHVDRRVPVLIGTGGTNARETIELSQHAQQAGADGIVVINPYYWKVSEANLIRYFEQVADSVTLPVMLYNFPALTGQDLTPALVKTLADSRSNIIGIKDTIDSVAHLRSMIHTVKGAHPHFTVLCGYDDHLFNTLLLGGDGAISASGNFAPQVSVNLLKAWRDGDVAKAAGYHQTLLQIPQMYQLDTPFVNVIKEAIVLCGRPVSTHVLPPASPLDEPRKAQLKTLLQQLKLC
notes: coupled LdhA/NADH assay
As for B3, in [4] (other: YagE), the Km stood at 0.35 mM, the Vmax came out at 0.63 µmol/min/mg, the turnover number (kcat) worked out at 0.04 s⁻¹ and the specificity constant (kcat/Km) was 115 M⁻¹ s⁻¹.

B4: YagE: E. coli pyruvate aldolase, E.C. 4.1.2.28, natural substrate 2-keto-3-deoxy-D-arabinonate; His-tagged recombinant protein (protein, UniProt P75682 1-302, looked up)
Putative …: MPQSALFTGIIPPVSTIFTADGQLDKPGTAALIDDLIKAGVDGLFFLGSGGEFSQLGAEERKAIARFAIDHVDRRVPVLIGTGGTNARETIELSQHAQQAGADGIVVINPYYWKVSEANLIRYFEQVADSVTLPVMLYNFPALTGQDLTPALVKTLADSRSNIIGIKDTIDSVAHLRSMIHTVKGAHPHFTVLCGYDDHLFNTLLLGGDGAISASGNFAPQVSVNLLKAWRDGDVAKAAGYHQTLLQIPQMYQLDTPFVNVIKEAIVLCGRPVSTHVLPPASPLDEPRKAQLKTLLQQLKLC
modifications: His tag
notes: E. coli pyruvate aldolase, E.C; 4.1.2.28, natural substrate 2-keto-3-deoxy-D-arabinonate; His-tagged recombinant protein
Regarding B4, in data set [3], the “function on OHB in vivo” value is recorded as “most efficient to degrade OHB in vivo”.

B5: Escherichia coli pyruvate aldolase DgoA (E.C. 4.1.2.21) (Escherichia coli K-12) (protein)
chain: MQWQTKLPLIAILRGITPDEALAHVGAVIDAGFDAVEIPLNSPQWEQSIPAIVDAYGDKALIGAGTVLKPEQVDALARMGCQLIVTPNIHSEVIRRAVGYGMTVCPGCATATEAFTALEAGAQALKIFPSSAFGPQYIKALKAVLPSDIAVFAVGGVTPENLAQWIDAGCAGAGLGSDLYRAGQSVERTAQQAAAFVKAYREAVQ
notes: coupled LdhA/NADH assay
On to B5, for which, in data set [4] (other: DgoA), the Km was 2.8 mM, the maximum rate (Vmax) was determined as 0.04 µmol/min/mg, the kcat was 0.012 s⁻¹ and the kcat/Km came to 4.7 M⁻¹ s⁻¹.

B6: YfaU: E. coli pyruvate aldolase, E.C. 4.1.2.53, natural substrate 2-keto-3-deoxy-L-rhamnonate (protein, UniProt P76469 1-267, looked up)
2-keto-3-deoxy-L-rhamnonate …: MNALLSNPFKERLRKGEVQIGLWLSSTTAYMAEIAATSGYDWLLIDGEHAPNTIQDLYHQLQAVAPYASQPVIRPVEGSKPLIKQVLDIGAQTLLIPMVDTAEQARQVVSATRYPPYGERGVGASVARAARWGRIENYMAQVNDSLCLLVQVESKTALDNLDEILDVEGIDGVFIGPADLSASLGYPDNAGHPEVQRIIETSIRRIRAAGKAAGFLAVAPDMAQQCLAWGANFVAVGVDTMLYSDALDQRLAMFKSGKNGPRIKGSY
Take B6: the “function on OHB in vivo” value in [3] is recorded as “do not have any function on OHB in vivo”.

B7: YjhH: E. coli pyruvate aldolase, E.C. 4.1.2.28, natural substrate 2-keto-3-deoxy-D-arabinonate; His-tagged recombinant protein (protein, UniProt P39359 1-301, looked up)
Probable …: MKKFSGIIPPVSSTFHRDGTLDKKAMREVADFLINKGVDGLFYLGTGGEFSQMNTAQRMALAEEAVTIVDGRVPVLIGVGSPSTDEAVKLAQHAQAYGADGIVAINPYYWKVAPRNLDDYYQQIARSVTLPVILYNFPDLTGQDLTPETVTRLALQNENIVGIKDTIDSVGHLRTMINTVKSVRPSFSVFCGYDDHLLNTMLLGGDGAITASANFAPELSVGIYRAWREGDLATAATLNKKLLQLPAIYALETPFVSLIKYSMQCVGLPVETYCLPPILEASEEAKDKVHVLLTAQGILPV
modifications: His tag
notes: as for B4
In the case of B7, in data set [3], the “function on OHB in vivo” value is listed as “most efficient to degrade OHB in vivo”.

As a reminder, the Km is the substrate concentration at which the rate is half of its maximum. One may read the Vmax as the rate approached at saturating substrate. The kcat is the maximal rate divided by the concentration of active sites. As a reminder, the kcat/Km is the second-order rate constant that governs catalysis at low substrate concentration.

Source of the values: patent publication US20260265789A1, “METHOD FOR IMPROVING 2, 4 DIHYDROXYBUTYRIC ACID PRODUCTION AND YIELD” (ADISSEO FRANCE S.A.S, priority 2023, published 2026).
